T1: MMP1 (human, UniProt P03956 100-469, limits assumed)
T1 sequence (looked up): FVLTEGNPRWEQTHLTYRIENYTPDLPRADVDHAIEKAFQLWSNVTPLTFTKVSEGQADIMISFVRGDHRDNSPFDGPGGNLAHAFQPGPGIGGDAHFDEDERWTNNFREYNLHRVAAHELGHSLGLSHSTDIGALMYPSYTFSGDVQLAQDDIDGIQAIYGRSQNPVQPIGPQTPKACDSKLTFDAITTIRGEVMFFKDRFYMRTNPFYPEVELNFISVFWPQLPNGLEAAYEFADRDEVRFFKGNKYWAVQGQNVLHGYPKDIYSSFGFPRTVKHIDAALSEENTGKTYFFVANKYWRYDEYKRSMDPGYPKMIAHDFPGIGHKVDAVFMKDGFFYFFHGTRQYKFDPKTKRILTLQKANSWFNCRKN

T2: Cathepsin G (UniProt P08311 21-244)
T2 sequence (looked up): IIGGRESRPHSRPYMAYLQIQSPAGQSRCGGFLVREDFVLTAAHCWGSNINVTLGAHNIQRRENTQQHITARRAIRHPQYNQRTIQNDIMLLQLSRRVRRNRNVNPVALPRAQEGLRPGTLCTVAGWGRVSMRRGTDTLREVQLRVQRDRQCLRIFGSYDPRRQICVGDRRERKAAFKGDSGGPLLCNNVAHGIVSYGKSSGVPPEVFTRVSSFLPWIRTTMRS


Tests used:
Assay in all cases: cell-based or functional assay
[1] = biological target: T1, MMP1
[2] = biological target: Elastase
[3] = biological target: T2, Cathepsin G

Protease Inhibition (% of WT) [1]	Protease Inhibition (% of WT) [2]	Protease Inhibition (% of WT) [3]	Binder
300 % of WT	300 % of WT	100 % of WT	Variant A2M, bait region SEQ ID NO 135 (other) SVSGKPQYMVLVPSLLHTETTEKGCVLLSYLNETVTVSASLESVRGNRSLFTDLEAENDVLHCVAFAVPKSSSNEEVMFLTVQVKGPTQEFKKRTTVMVKNEDSLVFVQTDKSIYKPGQTVKFRVVSMDENFHPLNELIPLVYIQDPKGNRIAQWQSFQLEGGLKQFSFPLSSEPFQGSYKVVVQKKSGGRTEHPFTVEEFVLPKFEVQVTVPKIITILEEEMNVSVCGLYTYGKPVPGHVTVSICRKYSDASDCHGEDSQAFCEKFSGQLNSHGCFYQQVKTKVFQLKRKEYEMKLHTEAQIQEEGTVVELTGRQSSEITRTITKLSFVKVDSHFRQGIPFFGQVRLVDGKGVPIPNKVIFIRGNEANYYSNATTDEHGLVQFSINTTNVMGTSLTVRVNYKDRSPCYGYQWVSEEHEEAHHTAYLVFSPSKSFVHLEPMSHELPCGHTQTVQAHYILNGGTLLGLKKLSFYYLIMAKGGIVRTGTHGLLVKQEDMKGHFSISIPVKSDIAPVARLLIYAVLPTGDVIGDSAKYDVENCLANKVDLSFSPSQSLPASHAHLRVTAAPQSVCALRAVDQSVLLMKPDAELSASSVYNLLPEKDLTGFPGPLNDQDDEDCINRHNVYINGITYTPVSSTNEKDMYSFLEDMGLKAFTNSKIRKPKMCPQLEQYEMHGPIPENFFGVSELEGRGSSEDLVVQIKEEEGLGSVEEPHTKLRKYFPETWIWDLVVVNSAGVAEVGVTVPDTITEWKAGAFCLSEDAGLGISSTASLRAFQPFFVELTMPYSVIRGEAFTLKATVLNYLPKCIRVSVQLEASPAFLAVPVEKEQAPHCICANGRQTVSWAVTPKSLGNVNFTVSAEALESQELCGTEVPSVPEHGRKDTVIKPLLVEPEGLEKETTFNSLLCPSGGEVSEELSLKLPPNVVEESARASVSVLGDILGSAMQNTQNLLQMPYGCGEQNMVLFAPNIYVLDYLNETQQLTPEIKSKAIGYLNTGYQRQLNYKHYDGSYSTFGERYGRNQGNTWLTAFVLKTFAQARAYIFIDEAHITQALIWLSQRQKDNGCFRSSGSLLNNAIKGGVEDEVTLSAYITIALLEIPLTVTHPVVRNALFCLESAWKTAQEGDHGSHVYTKALLAYAFALAGNQDKRKEVLKSLNEEAVKKDNSVHWERPQKPKAPVGHFYEPQAPSAEVEMTSYVLLAYLTAQPAPTSEDLTSATNIVKWITKQQNAQGGFSSTQDTVVALHALSKYGAATFTRTGKAAQVTIQSSGTFSSKFQVDNNNRLLLQQVSLPELPGEYSMKVTGEGCVYLQTSLKYNILPEKEEFPFALGVQTLPQTCDEPKAHTSFQISLSVSYTGSRSASNMAIVDVKMVSGFIPLKPTVKMLERSNHVSRTEVSSNHVLIYLDKVSNQTLSLFFTVLQDVPVRDLKPAIVKVYDYYETDEFAIAEYNAPCSKDLGNADYKDDDDKGASHHHHHH
250 % of WT	350 % of WT	100 % of WT	Variant A2M, bait region SEQ ID NO 133 (other) SVSGKPQYMVLVPSLLHTETTEKGCVLLSYLNETVTVSASLESVRGNRSLFTDLEAENDVLHCVAFAVPKSSSNEEVMFLTVQVKGPTQEFKKRTTVMVKNEDSLVFVQTDKSIYKPGQTVKFRVVSMDENFHPLNELIPLVYIQDPKGNRIAQWQSFQLEGGLKQFSFPLSSEPFQGSYKVVVQKKSGGRTEHPFTVEEFVLPKFEVQVTVPKIITILEEEMNVSVCGLYTYGKPVPGHVTVSICRKYSDASDCHGEDSQAFCEKFSGQLNSHGCFYQQVKTKVFQLKRKEYEMKLHTEAQIQEEGTVVELTGRQSSEITRTITKLSFVKVDSHFRQGIPFFGQVRLVDGKGVPIPNKVIFIRGNEANYYSNATTDEHGLVQFSINTTNVMGTSLTVRVNYKDRSPCYGYQWVSEEHEEAHHTAYLVFSPSKSFVHLEPMSHELPCGHTQTVQAHYILNGGTLLGLKKLSFYYLIMAKGGIVRTGTHGLLVKQEDMKGHFSISIPVKSDIAPVARLLIYAVLPTGDVIGDSAKYDVENCLANKVDLSFSPSQSLPASHAHLRVTAAPQSVCALRAVDQSVLLMKPDAELSASSVYNLLPEKDLTGFPGPLNDQDDEDCINRHNVYINGITYTPVSSTNEKDMYSFLEDMGLKAFTNSKIRKPKMCPQLEQYEMHGPIPENFFGVEGEGEGESELEGRGSSEDLVVQIVEEPHTKLRKYFPETWIWDLVVVNSAGVAEVGVTVPDTITEWKAGAFCLSEDAGLGISSTASLRAFQPFFVELTMPYSVIRGEAFTLKATVLNYLPKCIRVSVQLEASPAFLAVPVEKEQAPHCICANGRQTVSWAVTPKSLGNVNFTVSAEALESQELCGTEVPSVPEHGRKDTVIKPLLVEPEGLEKETTFNSLLCPSGGEVSEELSLKLPPNVVEESARASVSVLGDILGSAMQNTQNLLQMPYGCGEQNMVLFAPNIYVLDYLNETQQLTPEIKSKAIGYLNTGYQRQLNYKHYDGSYSTFGERYGRNQGNTWLTAFVLKTFAQARAYIFIDEAHITQALIWLSQRQKDNGCFRSSGSLLNNAIKGGVEDEVTLSAYITIALLEIPLTVTHPVVRNALFCLESAWKTAQEGDHGSHVYTKALLAYAFALAGNQDKRKEVLKSLNEEAVKKDNSVHWERPQKPKAPVGHFYEPQAPSAEVEMTSYVLLAYLTAQPAPTSEDLTSATNIVKWITKQQNAQGGFSSTQDTVVALHALSKYGAATFTRTGKAAQVTIQSSGTFSSKFQVDNNNRLLLQQVSLPELPGEYSMKVTGEGCVYLQTSLKYNILPEKEEFPFALGVQTLPQTCDEPKAHTSFQISLSVSYTGSRSASNMAIVDVKMVSGFIPLKPTVKMLERSNHVSRTEVSSNHVLIYLDKVSNQTLSLFFTVLQDVPVRDLKPAIVKVYDYYETDEFAIAEYNAPCSKDLGNADYKDDDDKGASHHHHHH
300 % of WT	300 % of WT	200 % of WT	Variant A2M, bait region SEQ ID NO 131 (other) SVSGKPQYMVLVPSLLHTETTEKGCVLLSYLNETVTVSASLESVRGNRSLFTDLEAENDVLHCVAFAVPKSSSNEEVMFLTVQVKGPTQEFKKRTTVMVKNEDSLVFVQTDKSIYKPGQTVKFRVVSMDENFHPLNELIPLVYIQDPKGNRIAQWQSFQLEGGLKQFSFPLSSEPFQGSYKVVVQKKSGGRTEHPFTVEEFVLPKFEVQVTVPKIITILEEEMNVSVCGLYTYGKPVPGHVTVSICRKYSDASDCHGEDSQAFCEKFSGQLNSHGCFYQQVKTKVFQLKRKEYEMKLHTEAQIQEEGTVVELTGRQSSEITRTITKLSFVKVDSHFRQGIPFFGQVRLVDGKGVPIPNKVIFIRGNEANYYSNATTDEHGLVQFSINTTNVMGTSLTVRVNYKDRSPCYGYQWVSEEHEEAHHTAYLVFSPSKSFVHLEPMSHELPCGHTQTVQAHYILNGGTLLGLKKLSFYYLIMAKGGIVRTGTHGLLVKQEDMKGHFSISIPVKSDIAPVARLLIYAVLPTGDVIGDSAKYDVENCLANKVDLSFSPSQSLPASHAHLRVTAAPQSVCALRAVDQSVLLMKPDAELSASSVYNLLPEKDLTGFPGPLNDQDDEDCINRHNVYINGITYTPVSSTNEKDMYSFLEDMGLKAFTNSKIRKPKMCPQLEQYEMHGPEGEGEGEGISEDLVVQIPENFFGVKEEEGLGSVEEPHTKLRKYFPETWIWDLVVVNSAGVAEVGVTVPDTITEWKAGAFCLSEDAGLGISSTASLRAFQPFFVELTMPYSVIRGEAFTLKATVLNYLPKCIRVSVQLEASPAFLAVPVEKEQAPHCICANGRQTVSWAVTPKSLGNVNFTVSAEALESQELCGTEVPSVPEHGRKDTVIKPLLVEPEGLEKETTFNSLLCPSGGEVSEELSLKLPPNVVEESARASVSVLGDILGSAMQNTQNLLQMPYGCGEQNMVLFAPNIYVLDYLNETQQLTPEIKSKAIGYLNTGYQRQLNYKHYDGSYSTFGERYGRNQGNTWLTAFVLKTFAQARAYIFIDEAHITQALIWLSQRQKDNGCFRSSGSLLNNAIKGGVEDEVTLSAYITIALLEIPLTVTHPVVRNALFCLESAWKTAQEGDHGSHVYTKALLAYAFALAGNQDKRKEVLKSLNEEAVKKDNSVHWERPQKPKAPVGHFYEPQAPSAEVEMTSYVLLAYLTAQPAPTSEDLTSATNIVKWITKQQNAQGGFSSTQDTVVALHALSKYGAATFTRTGKAAQVTIQSSGTFSSKFQVDNNNRLLLQQVSLPELPGEYSMKVTGEGCVYLQTSLKYNILPEKEEFPFALGVQTLPQTCDEPKAHTSFQISLSVSYTGSRSASNMAIVDVKMVSGFIPLKPTVKMLERSNHVSRTEVSSNHVLIYLDKVSNQTLSLFFTVLQDVPVRDLKPAIVKVYDYYETDEFAIAEYNAPCSKDLGNADYKDDDDKGASHHHHHH

— patent US20230250154A1 (CYTONICS, published 2023)
